Data as given in patent US9309278.

Biological target: T1, Ac-FQPKKS(Ac)G-NH2 (alkylated acetyl-lysine analog of peptide 1)
T1 chain: FQPKXG

B1: human sirtuin 2 (SIRT2) enzyme (protein)
chain: MAEPDPSHPLETQAGKVQEAQDSDSDSEGGAAGGEADMDFLRNLFSQTLSLGSQKERLLDELTLEGVARYMQSERCRRVICLVGAGISTSAGIPDFRSPSTGLYDNLEKYHLPYPEAIFEISYFKKHPEPFFALAKELYPGQFKPTICHYFMRLLKDKGLLLRCYTQNIDTLERIAGLEQEDLVEAHGTFYTSHCVSASCRHEYPLSWMKEKIFSEVTPKCEDCQSLVKPDIVFFGESLPARFFSCMQSDFLKVDLLLVMGTSLQVQPFASLISKAPLSTPRLLINKEKAGQSDPFLGMIMGLGGGMDFDSKKAYRDVAWLGECDQGCLALAELLGWKKELEDLVRREHASIDAQSGAGVPNPSTSASPKKSPPPAKDEARTTEREKPQ
- deacetylation rate (SIRT2 assay, C18 analytical HPLC) (fold of the rate on the native peptide): 0.33
- enzymatic deacetylation (SIRT2 assay, HPLC peak of the deacetylated product): the sLys(Ac) residue in the alkylated peptide 1 was susceptible to enzymatic deacetylation, albeit to a lesser degree, compared to its native counterpart
